Laboratory results: publication PMC9482650, “Quantitative fragmentomics allow affinity mapping of interactomes” (Nature Communications, 2022)

Key:
Experiment in all cases: holdup assay
Parameters in all cases: key: below the threshold = too weak to quantify, mostly under pKd 3.1 to 4
[1] = molecular target: T1, LNX2_3, Q8N448
T1 sequence (Q8N448 463-564, limits assumed, looked up): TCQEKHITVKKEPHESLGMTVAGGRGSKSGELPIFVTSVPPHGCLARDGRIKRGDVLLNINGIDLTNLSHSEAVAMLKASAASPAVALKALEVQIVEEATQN

[2] = molecular target: T2, NHERF3_1, Q5T2W1
T2 sequence (Q5T2W1 4-100, limits assumed, looked up): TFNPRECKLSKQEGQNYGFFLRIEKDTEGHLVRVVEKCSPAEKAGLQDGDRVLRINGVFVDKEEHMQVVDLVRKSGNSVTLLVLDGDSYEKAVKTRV

[3] = molecular target: LNX1_1, Q8TBB1
[4] = molecular target: GRIP2_6, Q9C0E4
[5] = molecular target: T3, LIN7C, Q9NUP9
T3 sequence (Q9NUP9 88-185, limits assumed, looked up): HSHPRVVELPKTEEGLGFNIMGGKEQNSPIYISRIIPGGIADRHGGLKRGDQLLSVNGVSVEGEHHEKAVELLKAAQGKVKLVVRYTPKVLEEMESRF

[6] = molecular target: FRMPD3, Q5JV73
[7] = molecular target: NHERF4_1, Q86UT5-2
[8] = molecular target: SCRIB_3, Q14160
[9] = molecular target: TJP2_1, Q9UDY2
[10] = molecular target: SCRIB_2, Q14160
[11] = molecular target: T4, GRIP1_7, Q9Y3R0
T4 sequence (Q9Y3R0 999-1096, limits assumed, looked up): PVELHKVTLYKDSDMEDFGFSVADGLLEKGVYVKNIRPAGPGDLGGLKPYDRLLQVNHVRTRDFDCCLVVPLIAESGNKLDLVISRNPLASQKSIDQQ

[12] = molecular target: PTPN3, P26045
[13] = molecular target: MAGI2_3, Q86UL8
[14] = molecular target: MAGI1_2, Q96QZ7
[15] = molecular target: T5, DFNB31_2, Q9P202
T5 sequence (Q9P202 274-371, limits assumed, looked up): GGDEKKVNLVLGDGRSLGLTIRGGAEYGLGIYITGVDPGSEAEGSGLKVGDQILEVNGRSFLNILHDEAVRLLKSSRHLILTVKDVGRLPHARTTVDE

[16] = molecular target: LIMK2, P53671
[17] = molecular target: Inadl_4, Q8NI35
[18] = molecular target: T6, DVL3, Q92997
T6 sequence (Q92997 244-331, limits assumed, looked up): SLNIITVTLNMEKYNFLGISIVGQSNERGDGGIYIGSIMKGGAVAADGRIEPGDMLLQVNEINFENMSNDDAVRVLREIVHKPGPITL

[19] = molecular target: T7, MPP2, Q14168
T7 sequence (Q14168 180-250, limits assumed, looked up): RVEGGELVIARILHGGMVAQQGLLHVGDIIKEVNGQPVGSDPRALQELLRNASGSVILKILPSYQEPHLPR

[20] = molecular target: T8, GRIP1_5, Q9Y3R0
T8 sequence (Q9Y3R0 568-668, limits assumed, looked up): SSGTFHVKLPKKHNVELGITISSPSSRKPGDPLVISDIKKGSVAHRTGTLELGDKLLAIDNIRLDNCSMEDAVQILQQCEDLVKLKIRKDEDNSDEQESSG

[21] = molecular target: T9, LNX2_2, Q8N448
T9 sequence (Q8N448 334-432, limits assumed, looked up): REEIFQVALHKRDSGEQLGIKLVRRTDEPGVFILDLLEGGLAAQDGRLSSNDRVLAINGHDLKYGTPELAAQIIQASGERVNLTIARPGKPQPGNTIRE

[22] = molecular target: T10, PTPN13_1, Q12923
T10 sequence (Q12923 1088-1188, limits assumed, looked up): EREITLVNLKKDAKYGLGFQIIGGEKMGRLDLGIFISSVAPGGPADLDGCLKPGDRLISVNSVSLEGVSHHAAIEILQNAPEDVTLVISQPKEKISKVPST

[23] = molecular target: DLG1_1, Q12959
[24] = molecular target: IL16_3, Q14005
[25] = molecular target: T11, DLG3_3, Q92796
T11 sequence (Q92796 374-475, limits assumed, looked up): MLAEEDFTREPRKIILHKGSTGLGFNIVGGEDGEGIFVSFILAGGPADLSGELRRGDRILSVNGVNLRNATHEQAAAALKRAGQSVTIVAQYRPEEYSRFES

[26] = molecular target: T12, DFNB31_3, Q9P202
T12 sequence (Q9P202 811-907, limits assumed, looked up): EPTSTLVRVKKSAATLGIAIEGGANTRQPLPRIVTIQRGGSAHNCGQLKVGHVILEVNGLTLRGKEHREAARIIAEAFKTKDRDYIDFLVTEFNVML

[27] = plain residues with an end cap or a label only (N-terminal biotin on a linker: ado-ado)
[28] = plain residues with an end cap or a label only (N-terminal biotin on a linker: ahx)

Measured: pKd

Chain of IL16_3, Q14005 (Q14005 1107-1207): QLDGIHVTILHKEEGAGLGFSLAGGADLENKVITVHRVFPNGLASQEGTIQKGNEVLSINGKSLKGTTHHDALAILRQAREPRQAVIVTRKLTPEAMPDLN
Chain of SCRIB_3, Q14160 (Q14160 999-1103): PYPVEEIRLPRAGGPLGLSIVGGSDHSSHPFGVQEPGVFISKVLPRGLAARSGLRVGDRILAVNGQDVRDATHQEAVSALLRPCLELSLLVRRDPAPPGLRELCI
Chain of PTPN3, P26045 (P26045 505-587): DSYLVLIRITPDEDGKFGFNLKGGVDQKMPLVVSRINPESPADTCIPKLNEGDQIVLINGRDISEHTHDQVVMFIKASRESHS
Chain of TJP2_1, Q9UDY2 (Q9UDY2 24-128): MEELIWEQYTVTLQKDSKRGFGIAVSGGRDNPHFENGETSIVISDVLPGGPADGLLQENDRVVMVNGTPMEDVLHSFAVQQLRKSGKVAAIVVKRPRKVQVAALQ
Chain of NHERF4_1, Q86UT5-2 (Q86UT5 other isoform, or with tags, fused parts or gaps): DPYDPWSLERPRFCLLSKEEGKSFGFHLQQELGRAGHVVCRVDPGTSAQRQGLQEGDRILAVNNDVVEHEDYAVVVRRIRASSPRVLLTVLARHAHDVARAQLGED
Chain of Inadl_4, Q8NI35 (Q8NI35 547-651): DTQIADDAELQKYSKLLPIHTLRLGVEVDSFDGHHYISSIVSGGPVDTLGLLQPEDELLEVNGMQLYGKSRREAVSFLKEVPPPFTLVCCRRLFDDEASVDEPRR
Chain of FRMPD3, Q5JV73 (Q5JV73 12-100): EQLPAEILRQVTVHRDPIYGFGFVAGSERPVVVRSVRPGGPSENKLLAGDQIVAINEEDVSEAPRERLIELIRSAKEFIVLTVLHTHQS
Chain of LIMK2, P53671 (P53671 143-248): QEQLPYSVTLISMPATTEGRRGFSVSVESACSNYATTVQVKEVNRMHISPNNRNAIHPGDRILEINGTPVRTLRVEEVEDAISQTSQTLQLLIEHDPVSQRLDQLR
Chain of SCRIB_2, Q14160 (Q14160 857-960): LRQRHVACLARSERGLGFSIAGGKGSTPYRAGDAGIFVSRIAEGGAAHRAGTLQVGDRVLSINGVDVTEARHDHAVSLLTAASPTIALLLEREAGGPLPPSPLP
Chain of LNX1_1, Q8TBB1 (Q8TBB1 261-371): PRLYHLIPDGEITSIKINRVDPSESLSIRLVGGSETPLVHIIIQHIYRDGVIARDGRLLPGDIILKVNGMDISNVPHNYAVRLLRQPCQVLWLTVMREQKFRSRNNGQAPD
Chain of MAGI1_2, Q96QZ7 (Q96QZ7 456-580): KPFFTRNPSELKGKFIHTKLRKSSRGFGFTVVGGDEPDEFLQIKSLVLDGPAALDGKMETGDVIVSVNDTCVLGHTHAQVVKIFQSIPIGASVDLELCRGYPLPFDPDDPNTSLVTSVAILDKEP
Chain of GRIP2_6, Q9C0E4 (Q9C0E4 648-740): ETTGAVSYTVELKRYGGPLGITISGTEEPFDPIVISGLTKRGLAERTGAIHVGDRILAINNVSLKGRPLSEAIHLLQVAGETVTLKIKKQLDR
Chain of MAGI2_3, Q86UL8 (Q86UL8 600-682): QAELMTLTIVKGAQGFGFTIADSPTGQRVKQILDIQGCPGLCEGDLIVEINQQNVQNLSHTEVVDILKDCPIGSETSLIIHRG

LPAVCYDIDI [PTTG2, Q9NZH5]
4.68: [4]; [27]
4.01: [5]; [27]
3.83: [21]; [27]
3.9: [26]; [27]
4.29: [8]; [27]
below the threshold: [1]; [27] | [2]; [27] | [3]; [27] | [6]; [27] | [7]; [27] | [9]; [27] | [10]; [27] | [11]; [27] | [13]; [27] | [14]; [27] | [15]; [27] | [16]; [27] | [17]; [27] | [18]; [27] | [19]; [27] | [20]; [27] | [22]; [27] | [23]; [27] | [24]; [27] | [25]; [27]
4.22: [12]; [27]

QNTDDVQTSF [ACE2, Q9BYF1]
4.45: [12]; [28]
4.4: [2]; [28]
3.65: [7]; [28]
below the threshold: [1]; [28] | [3]; [28] | [4]; [28] | [5]; [28] | [8]; [28] | [9]; [28] | [10]; [28] | [11]; [28] | [13]; [28] | [14]; [28] | [15]; [28] | [16]; [28] | [17]; [28] | [18]; [28] | [19]; [28] | [20]; [28] | [21]; [28] | [22]; [28] | [23]; [28] | [24]; [28] | [25]; [28] | [26]; [28]
3.78: [6]; [28]

KKMLQRRTLL [OR8G1, Q15617]
4.85: [14]; [27]
4.08: [26]; [27]
below the threshold: [1]; [27] | [3]; [27] | [4]; [27] | [5]; [27] | [6]; [27] | [10]; [27] | [11]; [27] | [13]; [27] | [15]; [27] | [16]; [27] | [17]; [27] | [18]; [27] | [19]; [27] | [20]; [27] | [21]; [27] | [22]; [27] | [23]; [27] | [24]; [27] | [25]; [27]
3.8: [12]; [27]
4.51: [7]; [27]
4.32: [9]; [27]
4.07: [8]; [27]
4.94: [2]; [27]

QSGLYESEEL [MYOT, Q9UBF9]
4.21: [12]; [27]
4.41: [7]; [27]
4.44: [2]; [27]
3.58: [5]; [27]
4.67: [4]; [27]
3.5: [26]; [27]
below the threshold: [1]; [27] | [3]; [27] | [6]; [27] | [8]; [27] | [9]; [27] | [10]; [27] | [11]; [27] | [13]; [27] | [14]; [27] | [15]; [27] | [16]; [27] | [17]; [27] | [18]; [27] | [19]; [27] | [20]; [27] | [21]; [27] | [22]; [27] | [23]; [27] | [24]; [27] | [25]; [27]

PYSESDDDWC [CACNA1A, O00555]
3.83: [8]; [27]
3.64: [9]; [27]
4: [21]; [27]
4.15: [12]; [27]
3.6: [26]; [27]
3.95: [2]; [27]
3.48: [6]; [27]
below the threshold: [1]; [27] | [3]; [27] | [4]; [27] | [5]; [27] | [10]; [27] | [11]; [27] | [13]; [27] | [14]; [27] | [15]; [27] | [16]; [27] | [17]; [27] | [18]; [27] | [19]; [27] | [20]; [27] | [22]; [27] | [23]; [27] | [24]; [27] | [25]; [27]
4.01: [7]; [27]
